{"source": "paper PMC3843637", "binders": {"B1": {"name": "MAN1 fragment from amino acids 755 to 911 (MAN1Luhm) (domain or fragment)", "chain": "DKILVIPSKVWQGQAFHLDRRNSPPNSLTPCLKIRNMFDPVMEIGDQWHLAIQEAILEKCSDNDGIVHIAVDKNSREGCVYVKCLSPEYAGKAFKALHGSWFDGKLVTVKYLRLDRYHHRFPQALTSNTPLKPSNKHMNSMSHLRLRTGLTNSQGSS"}}, "key": {"[1]": {"biological_target": "S3LMH2EEE/S4LMH2 heterotrimer (human) (UniProt P84022)", "assay": "ITC"}, "[2]": {"biological_target": "phosphomimetic Smad3 fragment S3LMH2EEE (linker and MH2 domain, amino acids 167 to 425) (human) (UniProt P84022)", "assay": "ITC"}}, "note": "Where “and” joins values, the source holds several entries; their conditions need not be identical. Equal entries are not always repeated.", "data": [{"binder": "B1", "values": [{"measurement": "Kd", "setting": "[1]", "value": "1500 nM and 1370 nM"}, {"measurement": "Kd", "setting": "[2]", "value": "1170 nM and 1350 nM"}]}]}
